In US20220259593A1, “CONTROL OF MAMMALIAN GENE DOSAGE USING CRISPR” (The Regents of the University of California, priority 2019, published 2022):
Numbering of substitutions follows the chain as printed.

B1: cr013 (nucleic acid)
guide: GTTTGAGAGCTAAGCTGGAAACAGCATAGCAAGTTTAAATAAGGCTAGTCCGTTATCAACTTGAAAAAGTGGCACCGAGTCGGTGCT
modifications: listed as DNA, chemistry not fully specified
B2: cr694 (nucleic acid)
guide: B1 guide with G5A, T53G, A64T
modifications: listed as DNA, chemistry not fully specified
B3: cr705 (nucleic acid)
guide: B1 guide with G5A, C76G, G82C
modifications: listed as DNA, chemistry not fully specified
B4: cr567 (nucleic acid)
guide: B1 guide with G5A, A64C, A65G
modifications: listed as DNA, chemistry not fully specified
B5: cr402 (nucleic acid)
guide: B1 guide with G5A, A23T
modifications: listed as DNA, chemistry not fully specified
B6: cr206 (nucleic acid)
guide: B1 guide with G5A, T61C, G79C
modifications: listed as DNA, chemistry not fully specified
B7: cr702 (nucleic acid)
guide: B1 guide with G5A, G72C
modifications: listed as DNA, chemistry not fully specified
B8: cr275 (nucleic acid)
guide: B1 guide with G5A, T61C, A68G, C73G, C76A, G82T, G85C
modifications: listed as DNA, chemistry not fully specified
B9: cr769 (nucleic acid)
guide: B1 guide with G5A, A32G, T53G, T54A
modifications: listed as DNA, chemistry not fully specified
B10: cr640 (nucleic acid)
guide: B1 guide with G5A, A74C, C76A, G82T, T84G
modifications: listed as DNA, chemistry not fully specified
B11: cr364 (nucleic acid)
guide: B1 guide with G5A, T61A
modifications: listed as DNA, chemistry not fully specified
B12: cr910 (nucleic acid)
guide: B1 guide with G5A, C73A, C76G, G82C, G85T
modifications: listed as DNA, chemistry not fully specified
B13: cr863 (nucleic acid)
guide: B1 guide with G5A, A23C
modifications: listed as DNA, chemistry not fully specified
B14: cr388 (nucleic acid)
guide: B1 guide with G5A, G72T, C73A, G85T, C86A
modifications: listed as DNA, chemistry not fully specified
B15: cr525 (nucleic acid)
guide: B1 guide with G5A, A59C, T70G, C76G, G82C
modifications: listed as DNA, chemistry not fully specified
B16: cr752 (nucleic acid)
guide: B1 guide with G5A, A65T, T87G
modifications: listed as DNA, chemistry not fully specified
B17: cr367 (nucleic acid)
guide: B1 guide with G5A, G44A, C50T, T62C, A67G, C73T, G85A
modifications: listed as DNA, chemistry not fully specified
B18: cr141 (nucleic acid)
guide: B1 guide with G5A, T46C, A65G
modifications: listed as DNA, chemistry not fully specified
B19: cr503 (nucleic acid)
guide: B1 guide with G5A, T84G
modifications: listed as DNA, chemistry not fully specified
B20: cr626 (nucleic acid)
guide: B1 guide with G5A, A65C, A78C
modifications: listed as DNA, chemistry not fully specified
B21: cr136 (nucleic acid)
guide: B1 guide with G5A, C45T, G48A, A74G, C75A, G83T, T84C
modifications: listed as DNA, chemistry not fully specified
B22: cr977 (nucleic acid)
guide: B1 guide with G5A, A59T, T70A, G77A, C81T
modifications: listed as DNA, chemistry not fully specified
B23: cr409 (nucleic acid)
guide: B1 guide with G5A, C22G
modifications: listed as DNA, chemistry not fully specified
B24: cr387 (nucleic acid)
guide: B1 guide with G5A, A47C
modifications: listed as DNA, chemistry not fully specified
B25: cr256 (nucleic acid)
guide: B1 guide with G5A, G29A
modifications: listed as DNA, chemistry not fully specified
B26: cr597 (nucleic acid)
guide: B1 guide with G5A, A59C, T70G, C73G, G77T, C81A, G85C
modifications: listed as DNA, chemistry not fully specified
B27: cr838 (nucleic acid)
guide: B1 guide with G5A, T46C
modifications: listed as DNA, chemistry not fully specified
B28: cr974 (nucleic acid)
guide: B1 guide with G5A, A65G, A78T
modifications: listed as DNA, chemistry not fully specified
B29: cr777 (nucleic acid)
guide: B1 guide with G5A, T53G
modifications: listed as DNA, chemistry not fully specified
B30: cr132 (nucleic acid)
guide: B1 guide with G5A, A65G, C76T, G82A
modifications: listed as DNA, chemistry not fully specified

Test system: K562 CRISPRi cells
Assay: Constant region variant library pooled growth screen, K562
Type: cell-based, human
Conditions: sgRNA constant region variants; activity relative to the original, un-modified constant region cr995
Text: We calculated relative activities for each targeting sequence:constant region pair by normalizing its phenotype to that of the targeting sequence paired with the unmodified constant region, identifying 409 constant region variants that on average conferred intermediate activity (0.1-0.9, FIG. 5B). Ten variants selected for individual evaluation also mediated intermediate levels of mRNA knockdown (FIG. 6B). Mapping the activities of constant region variants with single base substitutions onto the structure recapitulated known relationships between constant region structure and function (FIG. 5C).
The sequences in the library of modified constant regions were derived from the sgRNA (F+E) optimized sequence (23) modified to include a BlpI site (15). Each modified constant region was paired with 36 sgRNA targeting sequences (3 sgRNAs targeting each of 10 essential genes and six non-targeting negative control sgRNAs). The cloning strategy (described below) allowed the mutation of most positions in the sgRNA constant region. A variety of modifications were made, including substitutions of all single bases not in the BlpI restriction site (which is used for cloning), double substitutions including all substitutions at base-paired position pairs not before or in the BlpI site, and a variety of triple, quadruple, and sextuple substitutions, including base-pair-preserving substitutions at adjacent base-pairs.
The library was ordered and cloned in two parts. One part consisted of ˜100 modifications to the eight bases upstream of the BlpI restriction site. Constant region variants with mutations in this section were paired with each of the 36 targeting sequences, ordered as a pooled oligonucleotide library (Twist Biosciences), and cloned into pCRISPRia-v2 as described above. The second part consisted of ˜900 modifications to the 71 bases downstream of the BlpI restriction site. This part was cloned in two steps. First, all 36 targeting sequences were individually cloned into pCRISPRia-v2 as described above. The vectors were then pooled at an equimolar ratio and digested with BlpI (NEB) and XhoI (NEB). The modified constant region variants were ordered as a pooled oligonucleotide library (Twist Biosciences), PCR amplified with Phusion polymerase (NEB), digested with BlpI (NEB) and XhoI (NEB), and ligated into the digested vector pool, in a manner identical to previously published protocols and as described above, except for the different restriction enzymes.
Screens with the compact mismatched sgRNA library and the constant region library were conducted largely as described above, with smaller modifications during the screening procedure and an updated sequencing library preparation protocol. Briefly, the libraries were transduced in duplicate into K562 CRISPRi (both libraries) or HeLa CRISPRi cells (compact mismatched sgRNA library) as described above. K562 replicates were maintained separately in 0.15 to 0.3 L of RPMI-1640 in 0.3 L spinner flasks for the course of the screen. HeLa replicates were maintained in sets of ten 15-cm plates. Cells were selected with puromycin as described above (K562: 1 day of 0.75 μg/mL and 1 day of 0.85 μg/mL; HeLa: 2 days of 0.8 μg/mL and 1 day of 1 μg/mL). The remainder of the screen was carried out at >1000× library coverage (K562 compact mismatched sgRNA library: >2000×; HeLa compact mismatched sgRNA library: >1000×; K562 constant region library: >2000×). Multiple samples were harvested after 4 to 8 days of growth. For the drug screen, 10 μM lovastatin (ApexBio) or an equivalent volume of DMSO (vehicle) was added to flasks at t=0, and 3 days later cells were pelleted and re-suspended in fresh medium. Lovastatin (12 μM) or DMSO was again added after 5 and 9 days of growth, with media exchanges 3 days after drug supplementation. Multiple samples were harvested after 4 to 8 days for the K562 and HeLa growth screens. […]

Q: For B1, which Mean relative activity is on record?
A: Its Mean relative activity is 0.8907.

Q: With B2 as the molecule, how does the Mean relative activity read?
A: Its Mean relative activity is 0.8963.

Q: B3 was tested. Which Mean relative activity did it give?
A: The Mean relative activity was 0.8901.

Q: Which Mean relative activity does the source give for B4 here?
A: Its Mean relative activity is 1.06.

Q: Which Mean relative activity does the source give for B5 here?
A: The Mean relative activity was 0.8977.

Q: For B6, which Mean relative activity is on record?
A: The Mean relative activity was 0.8946.

Q: Which Mean relative activity does the source give for B7 here?
A: The Mean relative activity was 0.8977.

Q: Which Mean relative activity does the source give for B8 here?
A: The Mean relative activity was 1.06.

Same assay, conditions: sgRNA constant region variants; activity relative to the un-modified constant region cr995

Q: Which Mean relative activity does the source give for B9 here?
A: Its Mean relative activity is 0.9268.

Q: How did the Mean relative activity turn out when B10 was run?
A: The Mean relative activity was 0.9186.

Q: B11 was tested. Which Mean relative activity did it give?
A: The Mean relative activity was 0.9193.

Q: Which Mean relative activity does the source give for B12 here?
A: Its Mean relative activity is 0.9171.

Q: Which Mean relative activity does the source give for B13 here?
A: Its Mean relative activity is 0.9031.

Q: With B14 as the molecule, how does the Mean relative activity read?
A: The Mean relative activity was 0.9188.

Q: With B15 as the molecule, how does the Mean relative activity read?
A: The Mean relative activity was 0.9205.

Q: With B16 as the molecule, how does the Mean relative activity read?
A: The Mean relative activity was 0.9196.

Q: Which Mean relative activity does the source give for B17 here?
A: The Mean relative activity was 0.8998.

Q: B18 was tested. Which Mean relative activity did it give?
A: Its Mean relative activity is 0.9018.

Q: Which Mean relative activity does the source give for B19 here?
A: The Mean relative activity was 0.9079.

Q: With B20 as the molecule, how does the Mean relative activity read?
A: The Mean relative activity was 0.9006.

Q: With B21 as the molecule, how does the Mean relative activity read?
A: The Mean relative activity was 0.9172.

Q: Which Mean relative activity does the source give for B22 here?
A: The Mean relative activity was 0.9127.

Q: For B23, which Mean relative activity is on record?
A: The Mean relative activity was 0.9158.

Q: For B24, which Mean relative activity is on record?
A: The Mean relative activity was 0.9094.

Q: For B25, which Mean relative activity is on record?
A: Its Mean relative activity is 0.9023.

Q: B26 was tested. Which Mean relative activity did it give?
A: The Mean relative activity was 0.9187.

Q: For B27, which Mean relative activity is on record?
A: Its Mean relative activity is 0.9187.

Q: B28 was tested. Which Mean relative activity did it give?
A: The Mean relative activity was 0.9235.

Q: B29 was tested. Which Mean relative activity did it give?
A: The Mean relative activity was 0.9022.

Q: For B30, which Mean relative activity is on record?
A: Its Mean relative activity is 0.9196.
